This passage reports Km results from patent US7485771B2, “Polypeptides and polynucleotides relating to the α- and β-subunits of glutamate dehydrogenases and methods of use” (University of Florida Research Foundation, Inc., priority 1995, dated 2009).

Series [1] addresses T1, Chlorella sorokiniana chloroplastic NADP-specific glutamate dehydrogenase (NADP-GDH) α-homohexamer, native (mature α-subunit SEQ ID NO. 24) (Chlorella sorokiniana, UniProt P28998, E496R/E82D/G270P/L83V).
T1 construct: endogenous in cells; host or cells: Chlorella sorokiniana (UTEX-1230; 3B2NA), cultured in 29 mM ammonium medium; enzyme purified from the cells
T1 sequence (P28998 with tags, fused parts or gaps E82D/L83V/G270P/E496R): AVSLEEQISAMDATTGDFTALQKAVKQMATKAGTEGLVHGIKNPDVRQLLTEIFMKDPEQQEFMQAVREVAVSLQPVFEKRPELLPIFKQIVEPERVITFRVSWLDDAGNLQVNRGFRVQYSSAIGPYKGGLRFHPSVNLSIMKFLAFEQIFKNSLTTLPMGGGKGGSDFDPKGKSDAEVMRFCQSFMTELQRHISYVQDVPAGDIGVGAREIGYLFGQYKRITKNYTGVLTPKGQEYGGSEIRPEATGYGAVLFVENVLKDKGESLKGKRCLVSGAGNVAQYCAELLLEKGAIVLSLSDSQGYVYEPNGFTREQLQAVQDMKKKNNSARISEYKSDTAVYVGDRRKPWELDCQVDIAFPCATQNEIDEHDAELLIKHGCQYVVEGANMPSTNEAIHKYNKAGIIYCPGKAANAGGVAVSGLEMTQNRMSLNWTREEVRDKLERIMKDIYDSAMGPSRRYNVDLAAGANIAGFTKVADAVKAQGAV
Kind of series: Km values, aminating reaction, α-homohexameric isoenzyme. The class given is biochemical. Conditions: NH4^+ range, depending on the NADPH concentration (b9). The source says:
(§1) The chloroplastic glutamate dehydrogenase α- and β-isoenzymes used in the following experiments are naturally produced by an organism characterized as Chlorella sorokiniana.
(§2) C. sorokiniana culture conditions. For kinetic characterization in both the aminating and deaminating directions, the α- and β-holoenzymes were purified from cells that were accumulating only one form of homohexameric GDH isoenzyme.
(§3) The C. sorokiniana cells (UTEX-1230, University of Texas algal culture collection; 3B2NA, Robert R. Schmidt, University of Florida, Microbiology Cell Science Department) were cultured autotrophically as previously described by Prunkard et al., supra in a modified basal salts medium. […]
(§4) For preparative nondenaturing PAGE, a 3 cm tall 7% acrylamide (w/v, 28 acrylamide: 0.735 bis-acrylamide, pH 8.8) resolving gel, and a 2 cm tall 2% acrylamide (w/v, 1.6 acrylamide: 0.4 bis-acrylamide, pH 6.6) stacking gel were cast in the 28 mm ID gel tube of the Model 491 Prep Cell. […] The enzyme in the pooled fractions in 10 mM KPO4 (pH 6.2), 0.1 mM NADP^+ was concentrated by Diaflow ultrafiltration to 1 mg/mL as determined by the method of Bradford, using BSA as a standard. […] The purity of the preparation was determined by silver-staining to visualize proteins resolved by 10% (w/v) Tris-Tricine SDS-PAGE (Schagger, H., G. von Jagow [1987] Anal. Biochem. 166:368-379). […]

Series [2] has as its target T2, Chlorella sorokiniana chloroplastic NADP-specific glutamate dehydrogenase (NADP-GDH) β-homohexamer, native (mature β-subunit SEQ ID NO. 26) (Chlorella sorokiniana, UniProt P28998, E496R/E82D/G270P/L83V).
T2 construct: endogenous in cells; host or cells: Chlorella sorokiniana (UTEX-1230; 3B2NA), cells cultured in 1 mM or 29 mM ammonium medium; enzyme purified from the cells
T2 sequence (P28998 49-523 E82D/L83V/G270P/E496R): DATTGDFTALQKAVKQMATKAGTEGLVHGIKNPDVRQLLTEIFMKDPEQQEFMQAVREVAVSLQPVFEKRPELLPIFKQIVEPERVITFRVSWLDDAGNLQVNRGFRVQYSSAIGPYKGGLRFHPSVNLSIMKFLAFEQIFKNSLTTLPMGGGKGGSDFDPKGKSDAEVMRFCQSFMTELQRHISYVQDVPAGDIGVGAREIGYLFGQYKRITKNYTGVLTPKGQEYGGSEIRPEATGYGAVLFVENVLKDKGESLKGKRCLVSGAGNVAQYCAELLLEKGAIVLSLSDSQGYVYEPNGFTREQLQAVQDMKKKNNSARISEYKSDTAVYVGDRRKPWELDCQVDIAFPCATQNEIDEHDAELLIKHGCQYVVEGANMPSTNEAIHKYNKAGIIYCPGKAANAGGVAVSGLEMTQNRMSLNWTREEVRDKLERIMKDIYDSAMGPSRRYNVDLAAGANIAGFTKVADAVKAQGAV
The series is described as follows: Km values, aminating reaction, β-homohexameric isoenzyme. The format is biochemical.
From the text: as §1, §2, §3
(§5) The NADP-GDH β-isoenzyme was purified from a mixture of cells cultured for 240 minutes in 1 mM ammonium medium (14 g), 90 minutes in 1 mM ammonium medium (6 g), and for 20, 40, 60, and 80 minutes in 29 mM ammonium medium (1 g/time point) according to Bascomb and Schmidt, supra. […] The NADP-GDH in the pooled fractions was concentrated via Diaflow ultrafiltration to 2 mg/ml protein, as determined by the method of Bradford (Bradford, M. M. [1976] Anal. Biochem. 72:248-254), and stored at 4° C. until further use. After resolution of the proteins by 8% (w/v) Tris-Tricine SDS-PAGE, the purity of the preparation was determined by silver staining. […]

Series [3] has as its target T2, Chlorella sorokiniana chloroplastic NADP-specific glutamate dehydrogenase (NADP-GDH) β-homohexamer, native (mature β-subunit SEQ ID NO. 26). The following applies: β-homohexamer purified from Chlorella cells (catabolic form), non-allosteric; read-out: ammonium Km; cited from earlier work.
Substrate in series [4]: NC(=O)C1=CN([C@@H]2O[C@H](COP(=O)(O)OP(=O)(O)OC[C@H]3O[C@@H](n4cnc5c(N)ncnc54)[C@H](OP(=O)(O)O)[C@@H]3O)[C@@H](O)[C@H]2O)C=CC1
The series is described as follows: Km values, aminating reaction, α-homohexameric isoenzyme. The class given is biochemical, Chlorella sorokiniana. The following applies: other: α-homohexamer, 38.5 °C.
From the text: as §1, §2, §3, §4

Substrate in series [5]: NC(=O)c1ccc[n+]([C@@H]2O[C@H](COP(=O)([O-])OP(=O)(O)OC[C@H]3O[C@@H](n4cnc5c(N)ncnc54)[C@H](OP(=O)(O)O)[C@@H]3O)[C@@H](O)[C@H]2O)c1
Kind of series: Km values, deaminating reaction, α-homohexameric isoenzyme. The format is biochemical, Chlorella sorokiniana. The following applies: other: α-homohexamer, 38.5 °C.
From the text: as §1, §2, §3, §4

Substrate in series [6]: N[C@@H](CCC(=O)O)C(=O)O
Described as above. The format is biochemical, Chlorella sorokiniana. Conditions: other: α-homohexamer, 38.5 °C.
From the text: as §1, §2, §3, §4

Substrate in series [7]: O=C(O)CCC(=O)C(=O)O
Kind of series: purified protein, by the assay type. The following applies: other: β-homohexamer, aminating reaction; 38.5 °C.

Substrate in series [8]: NC(=O)C1=CN([C@@H]2O[C@H](COP(=O)(O)OP(=O)(O)OC[C@H]3O[C@@H](n4cnc5c(N)ncnc54)[C@H](OP(=O)(O)O)[C@@H]3O)[C@@H](O)[C@H]2O)C=CC1
Kind of series: Km values, aminating reaction, β-homohexameric isoenzyme. The class given is biochemical, Chlorella sorokiniana. The following applies: other: β-homohexamer, 38.5 °C.
From the text: as §1, §2, §3, §5

Substrate in series [9]: NC(=O)c1ccc[n+]([C@@H]2O[C@H](COP(=O)([O-])OP(=O)(O)OC[C@H]3O[C@@H](n4cnc5c(N)ncnc54)[C@H](OP(=O)(O)O)[C@@H]3O)[C@@H](O)[C@H]2O)c1
The series is described as follows: Km values, deaminating reaction, β-homohexameric isoenzyme. The class given is biochemical, Chlorella sorokiniana. Conditions: other: β-homohexamer, 38.5 °C.
From the text: as §1, §2, §3, §5

Substrate in series [10]: N[C@@H](CCC(=O)O)C(=O)O
The series is described as above. The following applies: other: β-homohexamer, 38.5 °C. The class given is biochemical, Chlorella sorokiniana.
From the text: as §1, §2, §3, §5

Read-outs that look alike come from different tables or passages of the source.

As to `N` [NH4^+, ammonium], the Michaelis constant (Km) in [1] is 0.02 to 3.5 mM; in [2], 77 mM; in series [3], approximately 75 mM.

B1: Chlorella sorokiniana chloroplastic NADP-specific glutamate dehydrogenase (NADP-GDH) α-homohexamer, native (mature α-subunit SEQ ID NO. 24) (Chlorella … (protein)
chain: AVSLEEQISAMDATTGDFTALQKAVKQMATKAGTEGLVHGIKNPDVRQLLTEIFMKDPEQQEFMQAVREVAVSLQPVFEKRPELLPIFKQIVEPERVITFRVSWLDDAGNLQVNRGFRVQYSSAIGPYKGGLRFHPSVNLSIMKFLAFEQIFKNSLTTLPMGGGKGGSDFDPKGKSDAEVMRFCQSFMTELQRHISYVQDVPAGDIGVGAREIGYLFGQYKRITKNYTGVLTPKGQEYGGSEIRPEATGYGAVLFVENVLKDKGESLKGKRCLVSGAGNVAQYCAELLLEKGAIVLSLSDSQGYVYEPNGFTREQLQAVQDMKKKNNSARISEYKSDTAVYVGDRRKPWELDCQVDIAFPCATQNEIDEHDAELLIKHGCQYVVEGANMPSTNEAIHKYNKAGIIYCPGKAANAGGVAVSGLEMTQNRMSLNWTREEVRDKLERIMKDIYDSAMGPSRRYNVDLAAGANIAGFTKVADAVKAQGAV
notes: endogenous in cells; host or cells: Chlorella sorokiniana (UTEX-1230; 3B2NA), cultured in 29 mM ammonium medium; enzyme purified from the cells
With B1, the results for the Km in [4], in [5] and in series [6] were 0.14 mM, 0.04 mM and 38.2 mM, respectively.

B2: Chlorella sorokiniana chloroplastic NADP-specific glutamate dehydrogenase (NADP-GDH) β-homohexamer, native (mature β-subunit SEQ ID NO. 26) (Chlorella … (protein)
chain: DATTGDFTALQKAVKQMATKAGTEGLVHGIKNPDVRQLLTEIFMKDPEQQEFMQAVREVAVSLQPVFEKRPELLPIFKQIVEPERVITFRVSWLDDAGNLQVNRGFRVQYSSAIGPYKGGLRFHPSVNLSIMKFLAFEQIFKNSLTTLPMGGGKGGSDFDPKGKSDAEVMRFCQSFMTELQRHISYVQDVPAGDIGVGAREIGYLFGQYKRITKNYTGVLTPKGQEYGGSEIRPEATGYGAVLFVENVLKDKGESLKGKRCLVSGAGNVAQYCAELLLEKGAIVLSLSDSQGYVYEPNGFTREQLQAVQDMKKKNNSARISEYKSDTAVYVGDRRKPWELDCQVDIAFPCATQNEIDEHDAELLIKHGCQYVVEGANMPSTNEAIHKYNKAGIIYCPGKAANAGGVAVSGLEMTQNRMSLNWTREEVRDKLERIMKDIYDSAMGPSRRYNVDLAAGANIAGFTKVADAVKAQGAV
notes: endogenous in cells; host or cells: Chlorella sorokiniana (UTEX-1230; 3B2NA), cells cultured in 1 mM or 29 mM ammonium medium; enzyme purified from the cells
For B2, the Km in [7] is 12 mM; in [8], 0.14 mM; in [9] it was 0.04 mM; in series [10], 32.3 mM.

In general, Km refers to the substrate concentration at which the rate is half of its maximum.
